Test results published in publication PMC7595419.

Biological target: SicA-His6 (Salmonella enterica serovar Typhimurium) (UniProt P69066)
Test: EMSA

Sequence of SicA-His6 (Salmonella enterica serovar Typhimurium) (P69066 whole entry): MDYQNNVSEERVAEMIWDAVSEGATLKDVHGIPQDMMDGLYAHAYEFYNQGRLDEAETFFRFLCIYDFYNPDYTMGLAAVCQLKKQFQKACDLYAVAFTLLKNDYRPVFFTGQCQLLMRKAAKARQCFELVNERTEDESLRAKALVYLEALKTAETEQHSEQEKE

## ATAGGATCCCGTTGTATAAGGTTTTTTGTAGGCTTTTAAAAGCCTCCTGGGTTTTTAGTGAAGCTGAGTGATAGAAGCTCTGTATTTGCATAGCGTTTTTAATATTCCTGAATAGGGGAGTGGGAACATTCAACAGGGTTAACAACCCTTTAAAAGGATGTGACTTTTATGCACCAGGAACTTTAAAAAAATGTCCTTTTTAATGAGGAAACGCTTCTGATCAGGCGGGGAGGCATCCTGACGTCCATACGTAGTGGCGATCATGGGGGAGATCGGTACATCAAATGTCTAGATAT (double strand) [sopB regulatory region (-200 to +79)]
  binding: no binding
